Assay results taken from patent US20200054719.

Tested on: thrombin-activatable fibrinolysis inhibitor (TAFI), purified

E-WE thrombin (E. coli derived, non-glycosylated W215A/E217A thrombin)
activated TAFI, measured as hippuric acid generated from hippuryl-arginine (absorbance at 382 nm): E-WE thrombin is a poor activator of TAFI
